# In patent US4757012A, “Ascorbic acid intermediates and process enzymes” (Genentech, Inc., priority 1984, dated 1988):
# B1: 2,5-DKG reductase (Corynebacterium sp. ATCC 31090) (protein)
# chain: MTVPSIVLNDGNSIPQLGYGVFKVPPADTQRAVEEALEVGYRHIDTAAIYGNEEGVGAAIAASGIARDDLFITTKLWNDRHDGDEPAAAIAESLAKLALDQVDLYLVHWPTPAADNYVHAWEKMIELRAAGLTRSIGVSNHLVPHLERIVAATGVVPAVNQIELHPAYQQREITDWAAAHDVKIESWGPLGQGKYDLFGAEPVTAAAAAHGKTPAQAVLRWHLQKGFVVFPKSVRRERLEENLDVFDFDLTDTEIAAIDAMDPGDGSGRVSAHPDEVD
# notes: made in house; host or cells: Corynebacterium sp; ATCC 31090 (natural producer, native enzyme purified from cell paste, not recombinant)
# Legend:
# [1] = substrate: NC(=O)C1=CN([C@@H]2O[C@H](COP(=O)(O)OP(=O)(O)OC[C@H]3O[C@@H](n4cnc5c(N)ncnc54)[C@H](OP(=O)(O)O)[C@@H]3O)[C@@H](O)[C@H]2O)C=CC1; experiment: 2,5-DKG reductase kinetic / substrate specificity assay with purified enzyme; format: biochemical, Corynebacterium sp. ATCC 31090; conditions: other: cofactor NADPH, 150 mM sodium phosphate buffer, pH 6.4, 25° C.
# From the text: (§1) The following assay conditions were used to determine kinetic parameters: […]
# [2] = substrate: O=C(O)C(=O)[C@@H](O)[C@H](O)C(=O)CO; experiment: as above; format: biochemical, Corynebacterium sp. ATCC 31090; conditions: other: substrate 2,5-DKG, 150 mM sodium phosphate buffer, pH 6.4, 25° C.
# From the text: as §1
protein,measurement,setting,value
B1,Km,[1],0.0337 mM
same,Km,[2],15.5 mM
